Source: the supplement of paper PMC12042874
± gives the uncertainty stated by the source.

Assay: amyloid nucleation score (Sup35N fusion, yeast selection) (log enrichment); library NNK3; higher = more nucleation; inactive = no reads after selection
In short: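 The nucleation score is a DiMSum log enrichment of output over input reads, centred on the mode score of non-aggregating sequences. Sequences under 100 input reads were excluded, and reads came from Illumina sequencing of plasmid inserts. Psi-negative yeast expressing Sup35N fused to peptides of 20 random codons were induced with 100 μM copper sulfate for 24 hours and grown 7 days at 30°C on medium lacking adenine and uracil. Random libraries had three technical output replicates.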

Row | Substance | amyloid nucleation score
1 | LKFFVYLLNLYEDFLPVRFS | inactive
2 | LKGKP | inactive
3 | LKHCQMGVVTSSYLMWLVGT | inactive
4 | LKIWLRSYPYPLTGQKQRPK | inactive
5 | LKQDVKTAVFFFGVD | 1.1 ± 0.15
6 | LKSMLLSMRSIIEYCQQMVG | inactive
7 | LKTTDLLPQVTCPHLCILFL | 0.808 ± 0.23
8 | LKWCFFCCN | 2.54 ± 0.065
9 | LKYEERSGWWSLGSGVCGVV | inactive
10 | LLDKVLSEPKTSQDRSENVA | -0.696 ± 1.1
11 | LLEIPNSRDGFHRGSTVGDL | inactive
12 | LLFAYLMRMRISVHIWVRGT | inactive
13 | LLFMYSDMTYTWCIFYGELW | inactive
14 | LLFQMVHLTCVMYLLVSSTL | inactive
15 | LLGSSFFIRLFWTSSSFAAK | inactive
16 | LLGTEIWGCRRISHSGVMRW | -0.009 ± 0.43
17 | LLGWCCSDNPDRRKEY | inactive
18 | LLHFVHNSSSMLVRRREETG | 0.262 ± 0.39
19 | LLHRTWVFNSELPWCRYVLK | inactive
20 | LLIGNY | inactive
21 | LLIKAAFGKMVRCKFRLIEW | -0.454 ± 1.4
22 | LLIRTSLVGEIPLSVSVGCL | inactive
23 | LLLPIS | inactive

Row | Substance | amyloid nucleation score
24 | LLLWSAIIYK | inactive
25 | LLLYLN | inactive
26 | LLNRDI | inactive
27 | LLNSM | inactive
28 | LLPLFHNVIIGNCLFGCEPP | 1.62 ± 0.11
29 | LLRIPGF | inactive
30 | LLSILTWVSIYRRCFSFTAR | -0.758 ± 0.88
31 | LLTKSLNPYMMGCSSSIMQC | inactive
32 | LLTYHTSGYSCWSEG | inactive
33 | LLVAYPHYAGFCTAVSSKSG | inactive
34 | LLVSQLRYYWTATRNKFIF | inactive
35 | LLVTQGVYS | 1.17 ± 0.12
36 | LLYRWVGFHLIKLSVNAWLS | -1.01 ± 2.4
37 | LMGTQVVFDDTDPYTEKGLL | inactive
38 | LMIEGLSDIHVLMAVSPERG | inactive
39 | LMKMKRFLQLWTIGDGASKS | 1.81 ± 0.09
40 | LMLDFSIGRSPGDNAVICRH | inactive
41 | LMLGYLKYLYGAANRICYRS | inactive
42 | LMPCALFSGVYEAGRHGSFL | 0.462 ± 0.34
43 | LMYLTCPPRGDSTFPKVIRQ | inactive
44 | LMYVS | inactive
45 | LNDDLCSRVFWVYEYHECQV | inactive
46 | LNEFIKYLDICKFFSCSGRN | 1.61 ± 0.1

Row | Substance | amyloid nucleation score
47 | LNFPQMSYP | inactive
48 | LNGRYSLLWR | inactive
49 | LNIIP | inactive
50 | LNILF | 0.826 ± 0.11
51 | LNILIFFCFYGVWKIWKIIS | -0.665 ± 1.3
52 | LNKLEVNDVSIGYVNCTLFK | inactive
53 | LNLQPRVDVVLVLFRTRANK | 0.767 ± 0.25
54 | LNLYRLPLTPSLSASRMIAY | inactive
55 | LNNFMWKHVMGYPYVAWLAF | inactive
56 | LNNRA | inactive
57 | LNNTQFL | inactive
58 | LNQGSYYGMARFPL | inactive
59 | LNQVSLLVGNMRWDCDIKSA | inactive
60 | LNSSVYVLLRSILPSVWNQL | inactive
61 | LNVMFSFRYPWFSVFVLMIV | inactive
62 | LNVRAVFIVTRISVSYSRAR | 0.081 ± 0.52
63 | LNYVVTHLYLVLFHVMVSDG | inactive
64 | LPCWKFGLASHR | inactive
65 | LPDEEHVRYVCYLYDM | inactive
66 | LPEMGFFSLVDNWLAVAFSK | 1.46 ± 0.081
67 | LPGNLYFYVTGTCDNYLTVW | inactive
68 | LPHNIVLAKKTLKV | inactive
69 | LPIQVSFVMVRWGSMFMFRN | inactive

Row | Substance | amyloid nucleation score
70 | LPPFCGSGCLSGLLRSKTRR | 0.617 ± 0.19
71 | LPRLYDFLGLVWVIA | inactive
72 | LPTSFTSFNLKSLASMT | inactive
73 | LPYLKQ | inactive
74 | LPYTVQAVVIRVDKSYVSSV | inactive
75 | LQCLNQVRSRLVVLLLIFNV | inactive
76 | LQEGSN | inactive
77 | LQFNISYRMFSEVCVFLLVW | inactive
78 | LQLRSLF | inactive
79 | LQQCFYMVNFFMLSSLAVLL | inactive
80 | LQSFPYQYIITR | inactive
81 | LQSNFRSPTISGFTTEKVGK | inactive
82 | LQSSMSIYSQFWSVDSLFYE | 0.04 ± 0.66
83 | LQVVNLSR | inactive
84 | LQWVRLVSRVQSTDCNLGAG | inactive
85 | LQYFTYLGQCLKRETHHFLR | inactive
86 | LRASFWECLCCCVVR | 2.33 ± 0.073
87 | LRFNVDAMFSTSVVRIQKCL | inactive
88 | LRGMDYVCDEPLYVTLWVNR | inactive
89 | LRIERQSAFSCILDM | inactive
90 | LRLTIMSGIRVPVFYEHSFM | -0.443 ± 0.96
91 | LRMGVNILLAMGCFSAYPGE | 0.171 ± 0.39
92 | LRMHWDTYERSVDTIASVVH | inactive

Row | Substance | amyloid nucleation score
93 | LRMVTHMSVYDRNHLSW | inactive
94 | LRRGMMARFIVNVVRVN | inactive
95 | LRRTIYFTDDRCLWLDFAPL | 0.272 ± 0.43
96 | LRSSYQNLDPSVCQQFHLGE | -0.075 ± 0.66
97 | LRVPSPYIFYKSKGHNIGSL | inactive
98 | LSAADSMCGKRCLRGTP | inactive
99 | LSCHTKETFPDDG | inactive
100 | LSCMNRTQCHASFSLPL | inactive
101 | LSCPLVYSTSSFIK | inactive
102 | LSCVLTVGTKTLFRAQMTQV | inactive
103 | LSCYRVFSYCT | inactive
104 | LSDLEDWRNYRWSKEDLKVE | inactive
105 | LSDYLGYDG | inactive
106 | LSFCVVSTGRCAAMEN | inactive
107 | LSFVCTEETHGTNDSAGYNF | inactive
108 | LSFYTFGNNWTKRCNCPTAS | inactive
109 | LSGKTMVFFPKSNMRNNTRS | inactive
110 | LSGLESVRSSYDWVVGGWIS | -0.329 ± 1.3
111 | LSGNCKYRTLWFIGPYSHFC | inactive
112 | LSHAG | inactive
113 | LSIVQD | -0.413 ± 1.1
114 | LSIVRAGVRSGNRGELFRCR | inactive
115 | LSLFVGGAEGWVKGDPASEG | 0.507 ± 0.25

Row | Substance | amyloid nucleation score
116 | LSLLVTLG | inactive
117 | LSLRCEFSSASSGCTSGQRR | inactive
118 | LSLWRWSVHS | inactive
119 | LSMFTFCRYPGCQRLDRKPY | 1.23 ± 0.1
120 | LSMPMAAGCFKHMPCAA | -0.643 ± 1.7
121 | LSPPLVSWGGPTVRMGKCSG | inactive
122 | LSRCVPNDVGKAYMMKEKRK | inactive
123 | LSRFD | inactive
124 | LSRYSRSTIILEHWCDTDWY | 0.812 ± 0.24
125 | LSSFIFCFSLYAVLTMGVVH | inactive
126 | LSSFRPSYEYYLRDISAMSW | inactive
127 | LSSIWKGLRGLFIFFWHIKK | inactive
128 | LSSWFHFLSNTATRQKVWRS | inactive
129 | LSVANQNCVKLDIVHM | inactive
130 | LSVDRL | -0.632 ± 0.9
131 | LSVSIGVVGF | inactive
132 | LSWRRCA | inactive
133 | LSWRTPISAMFDSWACGGGR | inactive
134 | LSYCKRHIRRRLFVG | -0.208 ± 0.6
135 | LTDDSCCPRR | inactive
136 | LTDRDDDSTHVRSPYSRLLW | inactive
137 | LTFIMLCIS | 1.24 ± 0.12
138 | LTICFVSYVTVGDAGTMTPR | 1.62 ± 0.099

Row | Substance | amyloid nucleation score
139 | LTKYVVFSIY | 1.16 ± 0.094
140 | LTLLHRKRMVLRYCNFMLYL | inactive
141 | LTQLTIIKTGLTCLMA | inactive
142 | LTRRSRLWHMSSYTWKKDVI | 0.084 ± 0.5
143 | LTSCTATLCICCSRVVTVEI | 1.24 ± 0.082
144 | LTSLSKSFCNNVHAYSDFLH | inactive
145 | LTVCV | inactive
146 | LVCGPI | inactive
147 | LVCMEISSNFLATVCVEWIG | inactive
148 | LVCSLLQASNWCVISSS | 0.753 ± 0.11
149 | LVDLRTVSYTLSQKMKFGGS | inactive
150 | LVFKLAEMCADPIKQRCCGL | inactive
151 | LVFKYSKAVSTYWYEGDQVT | inactive
152 | LVFSRACTLVDTIE | inactive
153 | LVFTWYFMCNVMGIFDRGTR | 2.06 ± 0.094
154 | LVIACTGYVSLCR | inactive
155 | LVICGYDIRN | inactive
156 | LVINL | inactive
157 | LVLLHVLGERSSAPRRTVMR | inactive
158 | LVLMSEGFM | inactive
159 | LVLPVSFRVCFREVIIHMKY | inactive
160 | LVLRGKRSDV | inactive
161 | LVMINCCHVFRKARSTAERQ | 2.44 ± 0.071
